Measured values as given in US20230235052A1 (GRACELL BIOTECHNOLOGIES SHANGHAI, published 2023).
Numbering of substitutions follows the chain as printed. Like-named read-outs stand apart in the source and are kept apart here.

B1: humanized CD19 antibody VH3 + VL2 (antibody, V domains shown)
VH: QVQLQESGPGLVKPSQTLSLTCTVSGVSLPDYGVSWIRQPPGKGLEWIGVIWGSETTYYNSALKSRLTISKDTSKNQVSLKLSSVTAADTAVYYCAKHYYYGGSYAMDYWGQGTTVTVSS
VL: DIQMTQSPSSLSASVGDRVTITCRASQDISKYLNWYQQKPGKAPKLLIYHTSRLHSGVPSRFSGSGSGTDYTFTISSLQPEDIATYYCQQGNTLPYTFGGGTKLEIK
notes: also called Antibody No. 8
B2: humanized CD19 antibody VH1 + VL3 (antibody, V domains shown)
VH: B1 VH with L67V, K71V, V78F, K97R
VL: B1 VL with F73L
notes: also called Antibody No. 3
B3: humanized CD19 antibody VH4 + VL1 (antibody, V domains shown)
VH: B1 VH with I48L
VL: B1 VL with Y71F
notes: also called Antibody No. 10
B4: humanized CD19 antibody VH10 + VL5 (antibody, V domains shown)
VH: B1 VH with Q3K, Q16E, I48L, N76S, S79F, T115L
VL: B1 VL with T22S, Y87F
B5: humanized CD19 antibody VH3 + VL3 (antibody, V domains shown)
VH: B1 VH
VL: B1 VL with F73L
notes: also called Antibody No. 9
B6: humanized CD19 antibody VH2 + VL3 (antibody, V domains shown)
VH: B1 VH with L67V
VL: B1 VL with F73L
notes: also called Antibody No. 6
B7: humanized CD19 antibody VH5 + VL2 (antibody, V domains shown)
VH: B1 VH with L20V, I48L, V85L
VL: B1 VL
notes: also called Antibody No. 14
B8: humanized CD19 antibody VH9 + VL5 (antibody, V domains shown)
VH: B1 VH with Q16E, I48L, N76S, T115L
VL: B1 VL with T22S, Y87F
notes: also called H9L5
B9: humanized CD19 antibody VH4 + VL2 (antibody, V domains shown)
VH: B1 VH with I48L
VL: B1 VL
notes: also called Antibody No. 11
B10: humanized CD19 antibody VH8 + VL6 (antibody, V domains shown)
VH: B1 VH with Q3K, Q16E, L67V, N76S, S79F, T115L
VL: B1 VL with K42G, P44V, Y87F
B11: humanized CD19 antibody VH1 + VL1 (antibody, V domains shown)
VH: B1 VH with L67V, K71V, V78F, K97R
VL: B1 VL with Y71F
notes: also called Antibody No. 1
B12: humanized CD19 antibody VH2 + VL7 (antibody, V domains shown)
VH: B1 VH with L67V
VL: B1 VL with T22S, G41D, K42G, A43T, P44V, Y71F, Y87F
B13: humanized CD19 antibody VH2 + VL2 (antibody, V domains shown)
VH: B1 VH with L67V
VL: B1 VL
notes: also called Antibody No. 5
B14: humanized CD19 antibody VH5 + VL1 (antibody, V domains shown)
VH: B1 VH with L20V, I48L, V85L
VL: B1 VL with Y71F
notes: also called Antibody No. 13
B15: humanized CD19 antibody VH1 + VL2 (antibody, V domains shown)
VH: B1 VH with L67V, K71V, V78F, K97R
VL: B1 VL
notes: also called Antibody No. 2
B16: humanized CD19 antibody VH4 + VL6 (antibody, V domains shown)
VH: B1 VH with I48L
VL: B1 VL with K42G, P44V, Y87F
B17: humanized CD19 antibody VH3 + VL1 (antibody, V domains shown)
VH: B1 VH
VL: B1 VL with Y71F
notes: also called Antibody No. 7
B18: humanized CD19 antibody VH8 + VL5 (antibody, V domains shown)
VH: B1 VH with Q3K, Q16E, L67V, N76S, S79F, T115L
VL: B1 VL with T22S, Y87F
B19: humanized CD19 antibody VH5 + VL3 (antibody, V domains shown)
VH: B1 VH with L20V, I48L, V85L
VL: B1 VL with F73L
notes: also called Antibody No. 15
B20: humanized CD19 antibody VH2 + VL1 (antibody, V domains shown)
VH: B1 VH with L67V
VL: B1 VL with Y71F
notes: also called Antibody No. 4
B21: humanized CD19 antibody VH6 + VL4 (antibody, V domains shown)
VH: B1 VH with L20V, I48L, S61A, V85L
VL: B1 VL with F73L, G91A
notes: also called Antibody No. 16
B22: humanized CD19 antibody VH7 + VL6 (antibody, V domains shown)
VH: B1 VH with Q3K, Q16E, I48L, V78F, T115L
VL: B1 VL with K42G, P44V, Y87F
B23: humanized CD19 antibody VH2 + VL6 (antibody, V domains shown)
VH: B1 VH with L67V
VL: B1 VL with K42G, P44V, Y87F
B24: humanized CD19 antibody VH4 + VL3 (antibody, V domains shown)
VH: B1 VH with I48L
VL: B1 VL with F73L
notes: also called Antibody No. 12

Experiments:
[1] = molecular target: T1, human CD19 antigen (human, UniProt P15391 20-291, limits assumed); assay: SPR (Biacore), antibody captured via Fc
T1 sequence (looked up): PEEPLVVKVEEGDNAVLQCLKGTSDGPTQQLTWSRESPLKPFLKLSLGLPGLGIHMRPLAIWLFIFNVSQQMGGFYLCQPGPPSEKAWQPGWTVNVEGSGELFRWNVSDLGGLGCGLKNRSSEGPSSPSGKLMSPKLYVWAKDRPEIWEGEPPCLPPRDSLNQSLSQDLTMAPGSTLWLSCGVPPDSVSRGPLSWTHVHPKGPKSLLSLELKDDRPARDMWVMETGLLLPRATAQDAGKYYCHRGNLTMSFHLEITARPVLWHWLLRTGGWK
Description: Part of the antibodies in Example 1 were tested for affinity, and the composition of the heavy chain variable regions and the light chain variable regions of the antibodies to be tested are shown in Table 1.
(§1) HEK293 cells were used to express the antibodies to be tested and Protein A was used for purification. The surface plasmon resonance technique (SPR) was used for determination, and the Fc capture method was used for antibody fixation.

[2] = molecular target: T1, human CD19 antigen; assay: SPR (Biacore), antibody captured via Fc; remark: listed apart in the source
Description: Part of the antibodies in Example 1 were tested for affinity, and the composition of the heavy chain variable regions and the light chain variable regions of the antibodies to be tested are shown in Table 2.
as §1

[3] = molecular target: T2, CD19 on CD19-positive target cells SU-DHL-10 and Raji (human, UniProt P15391 20-556); assay: flow cytometry on CD19-positive Raji cells, antibody titrated, fluorescent anti-Fc secondary antibody, percent positive cells (panel 'scFv binding to Raji')
T2 construct: whole, on cells; also called cell surface antigens
T2 sequence (looked up): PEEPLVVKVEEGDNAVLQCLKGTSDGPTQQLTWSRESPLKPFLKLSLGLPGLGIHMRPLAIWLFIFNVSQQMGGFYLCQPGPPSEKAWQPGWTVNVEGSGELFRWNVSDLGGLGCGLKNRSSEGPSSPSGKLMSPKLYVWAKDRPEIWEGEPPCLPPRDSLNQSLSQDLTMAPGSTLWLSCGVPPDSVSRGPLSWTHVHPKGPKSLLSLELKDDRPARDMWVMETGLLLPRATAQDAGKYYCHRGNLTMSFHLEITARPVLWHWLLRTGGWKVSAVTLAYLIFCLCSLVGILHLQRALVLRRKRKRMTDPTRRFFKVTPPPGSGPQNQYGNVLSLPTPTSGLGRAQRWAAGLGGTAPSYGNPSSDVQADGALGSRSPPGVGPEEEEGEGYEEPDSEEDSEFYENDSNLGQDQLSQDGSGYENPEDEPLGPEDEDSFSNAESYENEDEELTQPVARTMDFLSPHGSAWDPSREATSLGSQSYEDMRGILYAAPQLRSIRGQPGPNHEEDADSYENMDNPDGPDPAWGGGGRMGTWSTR
Description: (§2) Part of the antibodies in Example 1 were detected for surface binding to CD19-positive target cells SU-DHL-10 and Raji.
(§3) CD19-positive SU-DHL-10 or Raji cell lines were used, and humanized antibodies at different concentrations were used to bind the target cells. After binding, secondary antibodies (fluorescent labeled anti-Fc antibodies) were used for staining. After cleaning the residual antibodies, the positive rate was analyzed by flow cytometry to draw the binding curve of antibodies binding to cell surface antigens.

[4] = molecular target: T2, CD19 on CD19-positive target cells …; assay: flow cytometry on CD19-positive SU-DHL-10 cells, antibody titrated, fluorescent anti-Fc secondary antibody, percent positive cells (panel 'scFv binding to SU-DHL-10')
Description: as §2, §3

Binder | Kd [1] | koff [1] | Kd [2] | koff [2] | kon [2] | EC50 (read off the curve) [3] | EC50 (read off the curve) [4]
B1 | 109 nM | 0.000638 s⁻¹ |  |  |  |  | 
B2 | 40.7 nM | 0.0794 s⁻¹ |  |  |  |  | 
B3 | 81 nM | 0.000584 s⁻¹ |  |  |  |  | 
B4 |  |  | 1.55 nM | 0.000182 s⁻¹ | 118000 M⁻¹ s⁻¹ | ~0.03 µg/mL | 
B5 | 15.8 nM | 0.00159 s⁻¹ |  |  |  |  | 
B6 | 44.7 nM | 0.000395 s⁻¹ |  |  |  |  | 
B7 | 14.8 nM | 0.0018 s⁻¹ |  |  |  |  | 
B8 |  |  | 1.7 nM | 0.000186 s⁻¹ | 109000 M⁻¹ s⁻¹ |  | 
B9 | 89.2 nM | 0.000605 s⁻¹ |  |  |  |  | 
B10 |  |  | 3.26 nM | 0.000383 s⁻¹ | 117000 M⁻¹ s⁻¹ | ~0.04 µg/mL | ~0.01 µg/mL
B11 | 57.6 nM | 0.00808 s⁻¹ |  |  |  |  | 
B12 |  |  | 6.39 nM | 0.00116 s⁻¹ | 181000 M⁻¹ s⁻¹ |  | 
B13 | 66.8 nM | 0.000526 s⁻¹ |  |  |  |  | 
B14 | 99.7 nM | 0.000637 s⁻¹ |  |  |  |  | 
B15 | 7.95 nM | 0.00738 s⁻¹ |  |  |  |  | 
B16 |  |  | 9.31 nM | 0.00121 s⁻¹ | 129000 M⁻¹ s⁻¹ |  | 
B17 | 111 nM | 0.000688 s⁻¹ |  |  |  |  | 
B18 |  |  | 3.87 nM | 0.000602 s⁻¹ | 155000 M⁻¹ s⁻¹ | ~0.03 µg/mL | ~0.01 µg/mL
B19 | 14.2 nM | 0.00143 s⁻¹ |  |  |  |  | 
B20 | 69.8 nM | 0.000568 s⁻¹ |  |  |  |  | 
B21 | 21000 nM | 0.00493 s⁻¹ |  |  |  |  | 
B22 |  |  | 4.57 nM | 0.000592 s⁻¹ | 130000 M⁻¹ s⁻¹ | ~0.03 µg/mL | ~0.01 µg/mL
B23 |  |  | 6.93 nM | 0.00124 s⁻¹ | 179000 M⁻¹ s⁻¹ |  | 
B24 | 56.1 nM | 0.000437 s⁻¹ |  |  |  |  | 
